Earlier results as cited in article PMC8507859.
Where two headings read alike, the source gives them in different places. Blank lines part the entries; values can stand above or below the substance they belong to.

Columns and labels:
[1] = molecular target: MMP-14 (Homo sapiens) (UniProt P50281)
[2] = molecular target: Integrin α2 (Homo sapiens) (UniProt P17301)
[3] = molecular target: MMP-14 (Homo sapiens) (UniProt P50281); remark: listed apart in the source

TIMP-1, sequence (P01033 24-207): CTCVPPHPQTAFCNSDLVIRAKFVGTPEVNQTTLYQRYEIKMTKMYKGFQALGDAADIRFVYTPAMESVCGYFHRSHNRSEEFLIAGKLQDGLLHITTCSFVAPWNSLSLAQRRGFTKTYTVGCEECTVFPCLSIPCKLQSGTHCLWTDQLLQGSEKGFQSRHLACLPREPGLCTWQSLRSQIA
Lumican, sequence (P51884 19-338): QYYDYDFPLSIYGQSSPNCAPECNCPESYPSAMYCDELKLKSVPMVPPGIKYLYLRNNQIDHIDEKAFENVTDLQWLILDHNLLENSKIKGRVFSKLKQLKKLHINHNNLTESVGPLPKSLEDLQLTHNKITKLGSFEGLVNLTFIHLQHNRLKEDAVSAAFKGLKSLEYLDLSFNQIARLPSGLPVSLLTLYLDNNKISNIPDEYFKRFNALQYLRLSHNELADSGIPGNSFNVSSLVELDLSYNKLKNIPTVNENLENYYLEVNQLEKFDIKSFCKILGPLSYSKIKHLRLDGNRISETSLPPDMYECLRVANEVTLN
Integrin α2 (Homo sapiens), sequence (P17301 30-1132): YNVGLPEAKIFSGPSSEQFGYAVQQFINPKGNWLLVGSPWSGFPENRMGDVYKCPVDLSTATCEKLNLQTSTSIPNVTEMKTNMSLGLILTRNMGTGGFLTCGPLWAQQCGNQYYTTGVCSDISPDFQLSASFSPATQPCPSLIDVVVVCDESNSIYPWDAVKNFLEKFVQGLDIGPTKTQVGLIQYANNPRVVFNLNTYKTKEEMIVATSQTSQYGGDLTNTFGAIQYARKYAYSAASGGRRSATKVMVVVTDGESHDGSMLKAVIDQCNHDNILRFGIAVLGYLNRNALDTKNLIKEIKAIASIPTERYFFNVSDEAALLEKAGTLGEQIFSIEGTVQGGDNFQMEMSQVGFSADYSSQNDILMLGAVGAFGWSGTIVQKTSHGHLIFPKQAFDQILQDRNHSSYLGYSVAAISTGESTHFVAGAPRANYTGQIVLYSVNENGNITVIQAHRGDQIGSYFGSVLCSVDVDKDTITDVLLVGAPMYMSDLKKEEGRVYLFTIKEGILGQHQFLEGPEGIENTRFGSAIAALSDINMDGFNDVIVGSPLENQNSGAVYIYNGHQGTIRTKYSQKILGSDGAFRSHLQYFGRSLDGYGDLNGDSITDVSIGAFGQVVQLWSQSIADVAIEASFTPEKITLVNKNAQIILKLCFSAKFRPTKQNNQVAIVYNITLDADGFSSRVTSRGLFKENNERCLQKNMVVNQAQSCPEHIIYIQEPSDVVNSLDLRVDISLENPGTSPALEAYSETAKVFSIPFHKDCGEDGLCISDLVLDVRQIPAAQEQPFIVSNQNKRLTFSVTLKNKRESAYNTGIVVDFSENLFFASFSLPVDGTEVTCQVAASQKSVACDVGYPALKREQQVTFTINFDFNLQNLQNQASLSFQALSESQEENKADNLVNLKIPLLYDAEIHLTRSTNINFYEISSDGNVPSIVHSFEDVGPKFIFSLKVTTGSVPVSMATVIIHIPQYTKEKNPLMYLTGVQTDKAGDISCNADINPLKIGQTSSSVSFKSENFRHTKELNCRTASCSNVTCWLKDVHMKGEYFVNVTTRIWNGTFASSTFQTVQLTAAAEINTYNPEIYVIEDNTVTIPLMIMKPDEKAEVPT
TIMP-2, sequence (P16035 27-220): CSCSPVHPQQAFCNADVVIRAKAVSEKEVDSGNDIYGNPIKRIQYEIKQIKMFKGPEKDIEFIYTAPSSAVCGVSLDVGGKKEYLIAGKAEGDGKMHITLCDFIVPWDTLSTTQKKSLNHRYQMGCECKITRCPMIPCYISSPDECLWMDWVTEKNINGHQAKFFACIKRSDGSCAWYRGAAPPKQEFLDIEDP

Kd [1]: 1.53 µM
Substance: TIMP-1 (from UniProt P01033)

Kd [2]: 0.2 µM
Substance: Lumican (from UniProt P51884)

Kd [3]: 0.0561 µM
Substance: TIMP-2 (from UniProt P16035)
